Residue numbers refer to the chain shown, from its start.
Columns and labels:
[1] = molecular target: T1, human full-length CD33 (CD33^FL) on cells (human, UniProt P20138 18-364); experiment: flow cytometry, murine antibody, control = secondary antibody only; REH cells expressing CD33FL
T1 construct: Used for engineered REH/ML-1 sublines overexpressing CD33^FL and for endogenous CD33 on parental AML cell lines; also called Siglec-3

[2] = molecular target: T2, purified extracellular domain of human CD33^ΔE2 with C-terminal His and Avi tags (human, UniProt P20138 18-259); experiment: SPR, Biacore T100, 25 C; 1H7 captured on anti-mouse IgG, purified CD33^ΔE2 ectodomain as analyte; target CD33^ΔE2 (lacking V-set domain)
T2 construct: extracellular domain; also called CD33^ΔE2 ectodomain; not shown: C-terminal His and Avi tags
Description: (§1) FIG. 9. SPR assessment of purified extracellular domains from CD33^FL or CD33^ΔE2 binding to captured 1H7. Black lines are data and gray lines are the model fits. SPR experiments were performed at 25° C. on a Biacore T100 (Cytiva) using a running buffer of 10 mM HEPES, pH 7.4, 150 mM NaCl, 3 mM EDTA, 0.05% surfactant P20 with 0.1 mg/mL bovine serum albumin. Rabbit anti-mouse IgG was amine coupled to 2 flow cells of a Series S CM5 chip (7300 RUs). 1H7 at 0.2 μg/mL was injected at 10 μL/min over 1 flow cell of immobilized anti-mouse IgG for either 2 mins or 5 mins to capture 94 or 163 RUs of antibody for the CD33^FL and CD33^ΔE2 binding experiments, respectively. Purified ectodomains for CD33^FL and CD33^ΔE2 (engineered with C-terminal His and Avi tags) were run as concentration series at 35 μL/min over both the captured antibody and anti-mouse IgG alone (reference) surfaces. CD33^FL was injected for 10 mins and allowed to dissociate for 15 mins. CD33^ΔE2 was injected for 7 mins and dissociated for 7 mins. Ectodomain concentrations (serial 2-fold dilutions starting at 75 nM for CD33^FL and 2 μM for CD33^ΔE2) were run in duplicate, randomized, and included a buffer blank every 4th injection. The CM5 chip was regenerated with 10 mM glycine, pH 1.7 for 3 minutes at 20 μL/min and 1H7 recaptured prior to each CD33 injection. Data was double referenced and analyzed in BiaEval 2.0.4.

[3] = molecular target: T3, purified extracellular domain of human CD33^FL with C-terminal His and Avi tags (human, UniProt P20138 18-259); experiment: SPR, Biacore T100, 25 C; 1H7 captured on anti-mouse IgG, purified CD33^FL ectodomain as analyte; target CD33^FL (full-length ectodomain)
T3 construct: also called CD33^FL ectodomain; CD33^FL antigen; not shown: C-terminal His and Avi tags
Description: as §1

[4] = molecular target: T2, purified extracellular domain of human …; experiment: SPR (Carterra), antibody captured on a protein A/G lawn, CD33ΔE2 antigen in solution; column 'CD33ΔE2 kD (nM), 4 µg/mL' (purified antibody)
Source text: (§2) FIG. 8. A kinetic profile was established from purified anti-CD33 antibodies and hybridoma supernatants by use of surface plasmon resonance technology (SPR) from the Carterra instrument. SPR is a great way to estimate the kinetic rate constants of binding interactions, of which can fit to a 1:1 Langmuir binding model to determine the on-rate (Kₒₙ) and off-rate (Koff). Both of these rate parameters allow for the calculation of the dissociation rate constant (Kd), referred to as binding affinity. The antibody clones were captured as an array on a protein A/G lawn, which was immobilized to a HC30M chip. The first kinetic experiment used a CD33^FL antigen which started at a concentration of 2 μM preceding a 4-fold titration to 2 nM. Following 10 HBSTE buffer blanks, 6 injections from low to high concentrations were subsequently flowed over the array to assess kinetics of each clone printed to the array, 1-min baseline, 5-min association, 10-min dissociation. The chip was then regenerated with 0.85% phosphoric acid pH 1.7 for a fresh reprint of the same array of clones to the protein A/G lawn, in case any lingering antigen stayed bound to the array preventing an interaction with the 2nd antigen of interest, of which CD33^ΔE2 flowed over the array of antibodies. […]

[5] = molecular target: T3, purified extracellular domain of human …; experiment: SPR (Carterra), antibody captured on a protein A/G lawn, CD33FL antigen in solution; column 'CD33FL kD (nM), 1 µg/mL' (purified antibody)
Source text: (§3) FIG. 8. A kinetic profile was established from purified anti-CD33 antibodies and hybridoma supernatants by use of surface plasmon resonance technology (SPR) from the Carterra instrument. SPR is a great way to estimate the kinetic rate constants of binding interactions, of which can fit to a 1:1 Langmuir binding model to determine the on-rate (Kₒₙ) and off-rate (Koff). Both of these rate parameters allow for the calculation of the dissociation rate constant (Kd), referred to as binding affinity. The antibody clones were captured as an array on a protein A/G lawn, which was immobilized to a HC30M chip. The first kinetic experiment used a CD33^FL antigen which started at a concentration of 2 μM preceding a 4-fold titration to 2 nM. Following 10 HBSTE buffer blanks, 6 injections from low to high concentrations were subsequently flowed over the array to assess kinetics of each clone printed to the array, 1-min baseline, 5-min association, 10-min dissociation. The chip was then regenerated with 0.85% phosphoric acid pH 1.7 for a fresh reprint of the same array of clones to the protein A/G lawn, in case any lingering antigen stayed bound to the array preventing an interaction with the 2nd antigen of interest, of which CD33^ΔE2 flowed over the array of antibodies. Carterra kinetic software was used to process the data to fit the raw data to kinetic curves for each concentration of antigen injected over the array.

[6] = molecular target: T2, purified extracellular domain of human …; experiment: SPR (Carterra), antibody captured on a protein A/G lawn, CD33ΔE2 antigen in solution; column 'CD33ΔE2 kD (nM), 1 µg/mL' (purified antibody)
Source text: as §2

[7] = molecular target: T4, artificial CD33 with deletion of exons 3 and 4, lacking the C2-set domain (CD33^ΔE3-4), on cells (human, UniProt P20138 1-364); experiment: flow cytometry on engineered cells
T4 construct: it probably still carries the CD33 signal peptide (aa 1-17), which is not part of the protein on cells; also called CD33 V-set construct (exon 3 and 4 deleted)

[8] = molecular target: T3, purified extracellular domain of human …; experiment: SPR (Carterra), antibody captured on a protein A/G lawn, CD33FL antigen in solution; column 'CD33FL kD (nM), 4 µg/mL' (purified antibody)
Source text: as §3

[9] = molecular target: T3, purified extracellular domain of human …; experiment: SPR (Biacore); column 'CD33FL Biacore kD (nM)'
[10] = molecular target: T2, purified extracellular domain of human …; experiment: SPR (Carterra), antibody or hybridoma supernatant captured on a protein A/G lawn, CD33ΔE2 antigen in solution
Source text: as §2

[11] = molecular target: T1, human full-length CD33 (CD33^FL) on …; experiment: flow cytometry, murine antibody, control = secondary antibody only; ML-1 parental cells (endogenous CD33) and REH cells expressing CD33FL
[12] = molecular target: T1, human full-length CD33 (CD33^FL) on …; experiment: flow cytometry, murine antibody, control = secondary antibody only; REH cells expressing CD33FL; remark: listed apart in the source

T2 sequence (P20138 140-259 limits assumed, stated change not applied): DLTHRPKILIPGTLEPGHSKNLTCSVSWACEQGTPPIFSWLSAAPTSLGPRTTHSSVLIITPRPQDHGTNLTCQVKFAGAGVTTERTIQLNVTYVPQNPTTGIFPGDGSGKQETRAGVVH
T1 sequence (P20138 18-364): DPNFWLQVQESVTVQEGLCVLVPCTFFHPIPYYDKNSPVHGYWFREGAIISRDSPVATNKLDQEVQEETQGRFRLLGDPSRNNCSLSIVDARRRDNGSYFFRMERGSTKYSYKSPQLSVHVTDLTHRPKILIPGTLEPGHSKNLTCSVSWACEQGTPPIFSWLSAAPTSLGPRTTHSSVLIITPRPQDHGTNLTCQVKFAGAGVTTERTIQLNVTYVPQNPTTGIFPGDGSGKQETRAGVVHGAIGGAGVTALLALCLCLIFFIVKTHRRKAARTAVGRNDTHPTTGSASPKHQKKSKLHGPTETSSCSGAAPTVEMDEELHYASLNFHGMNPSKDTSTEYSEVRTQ
T3 sequence (P20138 18-259): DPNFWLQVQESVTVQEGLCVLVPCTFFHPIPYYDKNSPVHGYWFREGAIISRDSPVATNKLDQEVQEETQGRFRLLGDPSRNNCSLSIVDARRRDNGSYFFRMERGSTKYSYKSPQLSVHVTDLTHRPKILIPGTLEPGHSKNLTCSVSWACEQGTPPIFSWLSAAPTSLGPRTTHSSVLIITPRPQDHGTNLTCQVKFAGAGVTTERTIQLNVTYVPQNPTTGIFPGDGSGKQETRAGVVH
T4 sequence (P20138 other isoform, or with tags, fused parts or gaps mutant limits assumed): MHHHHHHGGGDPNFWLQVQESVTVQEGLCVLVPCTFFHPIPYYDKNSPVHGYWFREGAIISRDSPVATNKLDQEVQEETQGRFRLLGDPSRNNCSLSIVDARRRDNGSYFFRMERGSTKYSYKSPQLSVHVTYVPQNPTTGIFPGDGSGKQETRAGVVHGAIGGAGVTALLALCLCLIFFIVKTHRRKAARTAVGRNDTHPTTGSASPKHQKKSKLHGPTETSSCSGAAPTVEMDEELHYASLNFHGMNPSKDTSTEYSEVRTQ

B1: 2D5 antibody (murine CD33^PAN antibody) (antibody, V domains shown)
VH: QVQLQQSGAELVRPGASVTLSCKASGYTFTDYDMHWVKQTPVHGLEWIGAIDPETGGTAYNQNFKGKAILTVDKSSRIAYMELRSLTSEDSAVFYCTSDYDYFGVWGTGTTVTVSS
VL: DIVMTQSQKFMSTSVGDRVSVTCKASQNVGTNVVWYHKKPGQSPKGLIYSASDRYSGVPDRFTGSGSGTDFTLTINNVQSEDLAEYFCQQYNIYPYTFGGGTKLEIK
notes: Murine hybridoma antibody
Does B1 bind [1]?
Result: binds

B2: 1H7 antibody (murine CD33^PAN antibody, hybridoma clone and recombinant 1H7) (antibody, V domains shown)
VH: QVQLQQSGAELVKPGASVKISCKASGYAFSNYWMNWVKQRPGKGLEWIGQINPGDGDTNYNGKFKGKATLTADKSSSTAYMQLSSLTSEDSAVYFCAREDRDYFDYWGQGTTLTVSS
VL: DIQMTQTTSSLSASLGDRVTISCRASQDINYYLNWYQQKPDGTVKLLIYYSSRLHSGVPSRFSGSGSGTDFSLTISNLEQEDIATYFCQQDDALPYTFGGGTKLEIK
notes: Murine antibody (captured on anti-mouse IgG in the Biacore run); both are treated as one molecule; also called clone 1H7
For B2, which Kd [2] is on record?
Its Kd is 280 nM.

What about the Kd [3] of the same binder?
Its Kd is 5.35 nM.

And the Kd [4]?
The Kd was 7.6 nM.

And the Kd [5]?
The Kd was 0.674 nM.

And the Kd [6]?
Its Kd is 5.3 nM.

Does B2 bind [7]?
Result: no binding

What about the Kd [8] of the same binder?
Its Kd is 4.2 nM.

B3: 5D12 antibody (murine CD33^V-set antibody) (antibody, V domains shown)
VH: QVQLQQSGAEVVKPGASVKISCRASGYAFSNYWMNWVKQRPGKGLEWIGQIYPGNFNTDYNGQFKGKATLTVDKSSNTAYMQLSSLTSEDSAVYFCARFFDFGAYFTLDYWGQGTSVTVSS
VL: DIKMTQSPSSIYASLGERVTINCKASQDIKSYLSWYQQKPWKSPKTLIYYATTLADGVPSRFSGSGSGQDYSLTISSLESDDTATYYCLHHGESPWTFGEGTKLEIK
notes: Murine hybridoma antibody
Which results are given for B3?
Kd [5]: 2.3 nM; Kd [9]: 0.122 nM; Kd [8]: 1.1 nM; binding result [10]: no binding

B4: 8F5 antibody (murine CD33^V-set antibody) (antibody, V domains shown)
VH: EVKLVESGGGLVQPGGSLKLSCAASGFTFSDFYMYWVRQTPEKRLEWVAFISNAGVTTYYPDTVEGRFTISRDNAKNTLYLQMSRLMSEDTAMYYCTKSDYDGAWFPYWGQGTLVTVS
VL: DIVMSQSPSSLPVSVGEKVTLSCKSSQSLLYSRNQYNFLAWYQQRPGQSPKLLIYWASTRESGVPDRFTGSGSGTDFTLTISSVKAEDLAVYYCQQYYSYPYTFGGGTKLEIK
notes: Murine hybridoma antibody
B4 was tested. Which Kd [5] did it give?
The Kd was 11 nM.

What about the Kd [9] of the same binder?
Its Kd is 8 nM.

And the Kd [8]?
Its Kd is 6.1 nM.

Does B4 bind [10]?
Result: no binding

B5: 9G2 antibody (murine CD33^PAN antibody) (antibody, V domains shown)
VH: EVKLVESEGGLVQPGSSMKLSCTASGFTFSDYYMSWVRQVPEKGLEWVASINYDGGSTYYLDSLKSRFIISRDNTKNILYLQMSSLKSEDTATYYCARDRGDGDYFDYWGQGTTLTVSS
VL: B2 VL with R24K, A25T, N30Y, Y31N, S51T, S65G, F71Y, D91G, A93T, Y96W
notes: Murine hybridoma antibody
Does B5 bind [11]?
Result: binds

B6: 6H9 antibody (murine CD33^PAN antibody) (antibody, V domains shown)
VH: EVMLVESGGGLVKPGGSLKLSCAASGFTFSSYTMSWVRQTPEKRLEWVATISGDGGNTYYSDSVKGRFTISRDNAKNTLYLQMSSLRSEDTALYYCARQGTGTDYFDYWGQGTTLTVS
VL: B2 VL with Y31I, S51T, F71Y, D91G, A93T, Y96W
notes: Murine hybridoma antibody
Does B6 bind [11]?
Result: binds

B7: 13E11 (antibody, V domains shown)
VH: KVQLQQSGAELVKPGASVKLSCKASGYTFTDYTLHWLKQRSGQGLEWIGWFYPTSGSINYNERFKDKATLTADKSSSTVYMELSRLTSVDSAVYFCARHKFGFDYWGQGTTLTVSS
VL: DIVLTQSPVSLAVSLGQRATISCKASHGVEYAGAHYMNWYQQKPGQPPKLLIYAASNLGSGIPPRFSGSGSGTDFTLNIHPVEEEDSATYYCQQSNEDPRTFGGGTKLEIK
notes: also called 13E11 antibody; murine CD33^C2-set-specific antibody, clone 13E11
Does B7 bind [12]?
Result: no binding
